Measured values taken from patent US20240084042A1 (Genentech, published 2024).
Where a chain is given by its changes, count along the chain named. Names and notes keep the numbering of the source. Where two headings read alike, the source gives them in different places. One block for each binder: values may come before it.

What was measured:
Assay in all cases: SPR, one-armed monovalent antibody
human KLK5 [1] = molecular target: T1, human KLK5 (human, UniProt Q9Y337 67-293)
T1 construct: also called huKLK5; KLK5 AMC
T1 sequence: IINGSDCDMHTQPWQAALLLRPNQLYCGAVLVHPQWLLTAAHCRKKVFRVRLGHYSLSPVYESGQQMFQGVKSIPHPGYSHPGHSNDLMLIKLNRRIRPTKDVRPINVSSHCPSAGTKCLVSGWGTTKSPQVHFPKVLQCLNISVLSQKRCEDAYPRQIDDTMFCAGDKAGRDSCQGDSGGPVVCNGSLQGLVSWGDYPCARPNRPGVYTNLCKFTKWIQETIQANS

cynomolgus monkey KLK5 [2] = molecular target: T2, cynomolgus monkey KLK5 (cynomolgus monkey, UniProt Q9Y337 67-293 (human entry))
T2 construct: also called cyno KLK5
T2 chain: T1 sequence with M9E, R21G, A29G, V71I, R98H, P99S, K128R, K169E, R202K

cynomolgus monkey KLK5 [3] = molecular target: T2, cynomolgus monkey KLK5
human KLK5 [4] = molecular target: T1, human KLK5; remark: listed apart in the source

B1: OA.hu.9H5.H14L4.G54A.G98Q.H89V.S95Y (antibody, V domains shown)
VH: EVQLVESGGGLIQPGGSLRLSCAASGFSLSSYGVSWVRKAPGKGLEYVGFIGSAGFAYYASWAKSRFTISRDNSKNTLYLQMNSLRAEDTAVYYCARDDVQGGKSLDIWGQGTLVTVSS
VL: DIQMTQSPSSLSASVGDRVTITCQASQSISSYLSWYQEKPGKAPKLLIYSASTLASGVPSRFSGSGSGTDFTLTISSLQPEDFATYYCVQDYTSYNVDNTFGGGTKVEIK
notes: One-armed (OA) monovalent anti-KLK5 antibody with a human IgG1 Fc, with Q38E/Q39K; constant regions and dummy Fc chain not specified
- Kd (human KLK5 [1]): 0.0121 nM
- koff (human KLK5 [1]): 2.39e-05 s⁻¹
- kon (human KLK5 [1]): 1.98e+06 M⁻¹ s⁻¹
- Kd (cynomolgus monkey KLK5 [2]): 0.0146 nM
- koff (cynomolgus monkey KLK5 [2]): 5.75e-05 s⁻¹
- kon (cynomolgus monkey KLK5 [2]): 3.95e+06 M⁻¹ s⁻¹

B2: OA.hu.9H5.H14L4.G98Q.S95Y (antibody, V domains shown)
VH: B1 VH with A54G
VL: B1 VL with V89H
notes: as for B1
- Kd (human KLK5 [1]): 0.0502 nM
- koff (human KLK5 [1]): 3.94e-05 s⁻¹
- kon (human KLK5 [1]): 785000 M⁻¹ s⁻¹
- Kd (cynomolgus monkey KLK5 [2]): 0.0361 nM
- koff (cynomolgus monkey KLK5 [2]): 0.000145 s⁻¹
- kon (cynomolgus monkey KLK5 [2]): 4.02e+06 M⁻¹ s⁻¹

B3: OA.hu.9H5.H14L4.G54A.G98Q.S95Y (antibody, V domains shown)
VH: B1 VH
VL: B1 VL with V89H
notes: as for B1
- Kd (human KLK5 [1]): 0.00994 nM
- koff (human KLK5 [1]): 2.71e-05 s⁻¹
- kon (human KLK5 [1]): 2.73e+06 M⁻¹ s⁻¹
- Kd (cynomolgus monkey KLK5 [2]): 0.0154 nM
- koff (cynomolgus monkey KLK5 [2]): 9.18e-05 s⁻¹
- kon (cynomolgus monkey KLK5 [2]): 5.97e+06 M⁻¹ s⁻¹

B4: OA.hu.9H5.H14L4.G54A.S95Y (antibody, V domains shown)
VH: B1 VH with Q101G
VL: B1 VL with V89H
notes: as for B1
- Kd (human KLK5 [1]): 0.0162 nM
- koff (human KLK5 [1]): 1.6e-05 s⁻¹
- kon (human KLK5 [1]): 992000 M⁻¹ s⁻¹
- Kd (cynomolgus monkey KLK5 [2]): 0.0175 nM
- koff (cynomolgus monkey KLK5 [2]): 8.44e-05 s⁻¹
- kon (cynomolgus monkey KLK5 [2]): 4.82e+06 M⁻¹ s⁻¹

B5: OA.hu.9H5.H14L4.G54A.H89V (antibody, V domains shown)
VH: B1 VH with Q101G
VL: B1 VL with Y95S
notes: as for B1
- Kd (human KLK5 [1]): 0.0102 nM
- koff (human KLK5 [1]): 3.85e-05 s⁻¹
- kon (human KLK5 [1]): 3.79e+06 M⁻¹ s⁻¹
- Kd (cynomolgus monkey KLK5 [2]): 0.00893 nM
- koff (cynomolgus monkey KLK5 [2]): 0.00011 s⁻¹
- kon (cynomolgus monkey KLK5 [2]): 1.24e+07 M⁻¹ s⁻¹

B6: OA.hu.9H5.H14L4.G98Q.H89V (antibody, V domains shown)
VH: B1 VH with A54G
VL: B1 VL with Y95S
notes: as for B1
- Kd (human KLK5 [1]): 0.0186 nM
- koff (human KLK5 [1]): 4.46e-05 s⁻¹
- kon (human KLK5 [1]): 2.4e+06 M⁻¹ s⁻¹
- Kd (cynomolgus monkey KLK5 [2]): 0.00978 nM
- koff (cynomolgus monkey KLK5 [2]): 0.000145 s⁻¹
- kon (cynomolgus monkey KLK5 [2]): 1.48e+07 M⁻¹ s⁻¹

B7: OA.hu.9H5.H14L4 (antibody, V domains shown)
VH: B1 VH with A54G, Q101G
VL: B1 VL with V89H, Y95S
notes: as for B1
- Kd (human KLK5 [1]): 0.254 nM
- koff (human KLK5 [1]): 0.000272 s⁻¹
- kon (human KLK5 [1]): 1.07e+06 M⁻¹ s⁻¹
- Kd (cynomolgus monkey KLK5 [2]): 0.0623 nM
- koff (cynomolgus monkey KLK5 [2]): 0.000697 s⁻¹
- kon (cynomolgus monkey KLK5 [2]): 1.12e+07 M⁻¹ s⁻¹

B8: OA.hu.9H5.H14L4.G98Q.H89V.S95Y (antibody, V domains shown)
VH: B1 VH with A54G
VL: B1 VL
notes: as for B1
- Kd (human KLK5 [1]): 0.0199 nM
- koff (human KLK5 [1]): 4.91e-05 s⁻¹
- kon (human KLK5 [1]): 2.47e+06 M⁻¹ s⁻¹
- Kd (cynomolgus monkey KLK5 [2]): 0.033 nM
- koff (cynomolgus monkey KLK5 [2]): 0.000133 s⁻¹
- kon (cynomolgus monkey KLK5 [2]): 4.02e+06 M⁻¹ s⁻¹

B9: OA.hu.9H5.H14L4.G54A.H89V.S95Y (antibody, V domains shown)
VH: B1 VH with Q101G
VL: B1 VL
notes: as for B1
- Kd (human KLK5 [1]): 0.0196 nM
- koff (human KLK5 [1]): 1.37e-05 s⁻¹
- kon (human KLK5 [1]): 699000 M⁻¹ s⁻¹
- Kd (cynomolgus monkey KLK5 [2]): 0.0172 nM
- koff (cynomolgus monkey KLK5 [2]): 7.36e-05 s⁻¹
- kon (cynomolgus monkey KLK5 [2]): 4.28e+06 M⁻¹ s⁻¹

B10: OA.hu.9H5.H14L4.G54A.G98Q.H89V (antibody, V domains shown)
VH: B1 VH
VL: B1 VL with Y95S
notes: as for B1
- Kd (human KLK5 [1]): 0.000348 nM
- koff (human KLK5 [1]): 2.97e-06 s⁻¹
- kon (human KLK5 [1]): 8.54e+06 M⁻¹ s⁻¹
- Kd (cynomolgus monkey KLK5 [2]): 0.00298 nM
- koff (cynomolgus monkey KLK5 [2]): 6.52e-05 s⁻¹
- kon (cynomolgus monkey KLK5 [2]): 2.19e+07 M⁻¹ s⁻¹

B11: OA.hu.10C5.L5H28.WT (antibody, V domains shown)
VH: EVQLVESGGGLVQPGGSLRLSCAASGFSLSSYGVTWVRQAPGKGLEWIGYITSNYGVSYYASWAKSRSTISRDTSKNTVYLQMGSLRAEDMAVYYCARENPDYGYAYDAWGQGTTVTVSS
VL: AIRMTQSPSSFSASTGDRVTITCQASESISNELSWYQQKPGKAPKLLIYYASTLASGVPSRFSGSGSGTDFTLTISSLQPEDFATYYCAQGFGSSGVENVFGGGTKVEIK
notes: One-armed (OA) monovalent anti-KLK5 antibody with a human IgG1 Fc, without Q38E/Q39K; constant regions and dummy Fc chain not specified
- Kd (cynomolgus monkey KLK5 [3]): 0.371 nM
- koff (cynomolgus monkey KLK5 [3]): 0.00424 s⁻¹
- kon (cynomolgus monkey KLK5 [3]): 1.14e+07 M⁻¹ s⁻¹
- Kd (human KLK5 [4]): 0.102 nM
- koff (human KLK5 [4]): 0.00128 s⁻¹
- kon (human KLK5 [4]): 1.25e+07 M⁻¹ s⁻¹

B12: OA.hu.10C5.N53V (antibody, V domains shown)
VH: B11 VH with N54V
VL: B11 VL
notes: as for B11
- Kd (cynomolgus monkey KLK5 [3]): 0.0355 nM
- koff (cynomolgus monkey KLK5 [3]): 0.00052 s⁻¹
- kon (cynomolgus monkey KLK5 [3]): 1.46e+07 M⁻¹ s⁻¹
- Kd (human KLK5 [4]): 0.0135 nM
- koff (human KLK5 [4]): 9.23e-05 s⁻¹
- kon (human KLK5 [4]): 6.84e+06 M⁻¹ s⁻¹

The next lines start with the values.

- Kd (cynomolgus monkey KLK5 [3]): 0.00744 nM
- koff (cynomolgus monkey KLK5 [3]): 0.0001 s⁻¹
- kon (cynomolgus monkey KLK5 [3]): 1.35e+07 M⁻¹ s⁻¹
- Kd (human KLK5 [4]): 0.00259 nM
- koff (human KLK5 [4]): 1.51e-05 s⁻¹
- kon (human KLK5 [4]): 5.82e+06 M⁻¹ s⁻¹
B13: OA.hu.10C5.N53V.S95F (antibody, V domains shown)
VH: B11 VH with Q39K, N54V
VL: B11 VL with Q38E, S95F
notes: as for B1

- Kd (cynomolgus monkey KLK5 [3]): 0.00303 nM
- koff (cynomolgus monkey KLK5 [3]): 2.86e-05 s⁻¹
- kon (cynomolgus monkey KLK5 [3]): 9.41e+06 M⁻¹ s⁻¹
- Kd (human KLK5 [4]): < 0.000235 nM
- koff (human KLK5 [4]): < 1e-06 s⁻¹
- kon (human KLK5 [4]): 4.25e+06 M⁻¹ s⁻¹
B14: OA.hu.10C5.N53V.S34K.S95F (antibody, V domains shown)
VH: B11 VH with Q39K, N54V
VL: B11 VL with S34K, Q38E, S95F
notes: as for B1

- Kd (cynomolgus monkey KLK5 [3]): 0.0162 nM
- koff (cynomolgus monkey KLK5 [3]): 8.88e-05 s⁻¹
- kon (cynomolgus monkey KLK5 [3]): 5.48e+06 M⁻¹ s⁻¹
- Kd (human KLK5 [4]): 0.00289 nM
- koff (human KLK5 [4]): 9.88e-06 s⁻¹
- kon (human KLK5 [4]): 3.42e+06 M⁻¹ s⁻¹
B15: OA.hu.10C5.N53V.S34K (antibody, V domains shown)
VH: B11 VH with Q39K, N54V
VL: B11 VL with S34K, Q38E
notes: as for B1

- Kd (cynomolgus monkey KLK5 [3]): 0.00265 nM
- koff (cynomolgus monkey KLK5 [3]): 2.81e-05 s⁻¹
- kon (cynomolgus monkey KLK5 [3]): 1.06e+07 M⁻¹ s⁻¹
- Kd (human KLK5 [4]): 0.000367 nM
- koff (human KLK5 [4]): 1.88e-06 s⁻¹
- kon (human KLK5 [4]): 5.13e+06 M⁻¹ s⁻¹
B16: OA.hu.10C5.N53V.S34K.F92Y.S95F (antibody, V domains shown)
VH: B11 VH with Q39K, N54V
VL: B11 VL with S34K, Q38E, F92Y, S95F
notes: as for B1

- Kd (cynomolgus monkey KLK5 [3]): 0.00376 nM
- koff (cynomolgus monkey KLK5 [3]): 5.72e-05 s⁻¹
- kon (cynomolgus monkey KLK5 [3]): 1.52e+07 M⁻¹ s⁻¹
- Kd (human KLK5 [4]): 0.000853 nM
- koff (human KLK5 [4]): 8.65e-06 s⁻¹
- kon (human KLK5 [4]): 1.01e+07 M⁻¹ s⁻¹
B17: OA.hu.10C5.N53V.F92Y.S95F (antibody, V domains shown)
VH: B11 VH with Q39K, N54V
VL: B11 VL with Q38E, F92Y, S95F
notes: as for B1

- Kd (cynomolgus monkey KLK5 [3]): 0.00885 nM
- koff (cynomolgus monkey KLK5 [3]): 0.000161 s⁻¹
- kon (cynomolgus monkey KLK5 [3]): 1.82e+07 M⁻¹ s⁻¹
- Kd (human KLK5 [4]): 0.00382 nM
- koff (human KLK5 [4]): 2.45e-05 s⁻¹
- kon (human KLK5 [4]): 6.41e+06 M⁻¹ s⁻¹
B18: OA.hu.10C5.N53V.F92Y (antibody, V domains shown)
VH: B11 VH with Q39K, N54V
VL: B11 VL with Q38E, F92Y
notes: as for B1

- Kd (cynomolgus monkey KLK5 [3]): 0.00522 nM
- koff (cynomolgus monkey KLK5 [3]): 3.08e-05 s⁻¹
- kon (cynomolgus monkey KLK5 [3]): 5.9e+06 M⁻¹ s⁻¹
- Kd (human KLK5 [4]): < 0.000334 nM
- koff (human KLK5 [4]): < 1e-06 s⁻¹
- kon (human KLK5 [4]): 3e+06 M⁻¹ s⁻¹
B19: OA.hu.10C5.N53V.S34K.F92Y (antibody, V domains shown)
VH: B11 VH with Q39K, N54V
VL: B11 VL with S34K, Q38E, F92Y
notes: as for B1
